The record followed here is patent US20220331457A1.

The target of experiment [1] is human carbonic anhydrase IX (CAIX) (human) (UniProt Q16790). In words: competition ELISA on coated CAIX; competitor: biotinylated chimeric Girentuximab IgG1. For orientation: In an ELISA, binding on a coated surface is turned into a signal by an enzyme label.
Experiment [2] shares this target. In words: SPR (Biacore T200), multicycle kinetics; purified antibody captured on Protein G chip, CAIX as analyte. A general note: In SPR one partner is held on a chip, and binding of the other changes the refractive index at the surface.

As to “Chimeric Girentuximab (VH0/Vκ0) IgG4 (S228P, L235E) (antibody)”, the relative IC50 (IC50 of the variant divided by IC50 of the Girentuximab chimeric IgG1 antibody on the same plate) in experiment [1] was < 2 fold. Besides, the relative KD (KD of the variant divided by KD of the chimeric antibody on the same chip) in experiment [2] was < 2 fold.
